This assay deals with HBsAg on purified human serum HBV (virions used in the Tupaia hepatocyte neutralization assay) (Hepatitis B virus). In words: cell-based or functional assay.

mouse monoclonal antibody MA18/7 registered a neutralization of HBV infection of primary Tupaia hepatocytes (newly produced HBsAg) of 100 µg/mL and a neutralization of HBV infection of primary Tupaia hepatocytes (newly produced HBsAg) (reciprocal dilution) of 10.

(Values after patent US20160326233A1.)
